Results: PMC8906542

Experiments:
Assay in all cases: fluorescence polarization
ErmE R163E = target: T1, ErmE R163E (Saccharopolyspora erythraea, UniProt P07287 1-381, R163E)
T1 sequence: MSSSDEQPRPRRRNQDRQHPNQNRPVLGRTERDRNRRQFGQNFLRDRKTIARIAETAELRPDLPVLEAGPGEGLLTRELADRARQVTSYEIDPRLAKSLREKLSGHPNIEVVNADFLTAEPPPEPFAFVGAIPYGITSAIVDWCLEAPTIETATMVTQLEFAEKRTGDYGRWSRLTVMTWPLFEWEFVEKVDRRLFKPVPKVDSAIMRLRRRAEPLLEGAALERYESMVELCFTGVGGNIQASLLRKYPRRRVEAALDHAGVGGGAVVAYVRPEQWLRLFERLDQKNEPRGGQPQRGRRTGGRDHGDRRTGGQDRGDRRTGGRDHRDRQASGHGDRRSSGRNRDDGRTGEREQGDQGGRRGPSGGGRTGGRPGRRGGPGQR

ErmE R165A = target: T2, ErmE R165A (Saccharopolyspora erythraea, UniProt P07287 1-381, R165A)
T2 sequence: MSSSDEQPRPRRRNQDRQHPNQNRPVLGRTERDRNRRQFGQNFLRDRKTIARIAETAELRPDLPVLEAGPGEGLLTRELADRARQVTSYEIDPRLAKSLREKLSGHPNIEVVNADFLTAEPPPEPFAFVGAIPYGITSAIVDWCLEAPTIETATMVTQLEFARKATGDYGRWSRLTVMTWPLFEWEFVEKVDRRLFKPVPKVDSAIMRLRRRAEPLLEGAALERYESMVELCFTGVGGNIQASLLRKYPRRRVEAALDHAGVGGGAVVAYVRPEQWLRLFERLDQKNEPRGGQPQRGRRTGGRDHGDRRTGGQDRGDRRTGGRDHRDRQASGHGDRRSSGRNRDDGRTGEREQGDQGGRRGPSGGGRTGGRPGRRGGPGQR

ErmE E160W = target: T3, ErmE E160W (Saccharopolyspora erythraea, UniProt P07287 1-381, E160W)
T3 sequence: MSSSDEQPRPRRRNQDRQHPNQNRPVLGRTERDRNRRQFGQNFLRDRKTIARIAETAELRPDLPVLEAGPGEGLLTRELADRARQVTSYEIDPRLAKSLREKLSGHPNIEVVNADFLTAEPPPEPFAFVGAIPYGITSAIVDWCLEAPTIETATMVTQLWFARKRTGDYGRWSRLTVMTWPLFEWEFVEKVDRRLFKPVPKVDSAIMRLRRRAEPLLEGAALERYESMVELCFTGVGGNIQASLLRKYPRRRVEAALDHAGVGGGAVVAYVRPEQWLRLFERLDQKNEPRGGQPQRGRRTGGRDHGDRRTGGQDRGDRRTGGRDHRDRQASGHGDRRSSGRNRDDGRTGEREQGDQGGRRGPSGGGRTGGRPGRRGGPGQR

ErmE K164S = target: T4, ErmE K164S (Saccharopolyspora erythraea, UniProt P07287 1-381, K164S)
T4 sequence: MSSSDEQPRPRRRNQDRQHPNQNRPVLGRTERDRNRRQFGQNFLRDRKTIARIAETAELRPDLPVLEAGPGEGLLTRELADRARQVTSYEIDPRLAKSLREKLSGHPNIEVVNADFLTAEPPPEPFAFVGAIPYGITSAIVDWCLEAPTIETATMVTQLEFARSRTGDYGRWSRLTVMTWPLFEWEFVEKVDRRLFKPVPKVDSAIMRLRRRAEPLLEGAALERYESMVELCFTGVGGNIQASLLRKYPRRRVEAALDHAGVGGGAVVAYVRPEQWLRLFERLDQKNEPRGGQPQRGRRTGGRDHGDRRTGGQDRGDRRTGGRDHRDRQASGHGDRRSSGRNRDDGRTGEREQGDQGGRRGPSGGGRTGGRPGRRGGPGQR

ErmE K164M = target: T5, ErmE K164M (Saccharopolyspora erythraea, UniProt P07287 1-381, K164M)
T5 sequence: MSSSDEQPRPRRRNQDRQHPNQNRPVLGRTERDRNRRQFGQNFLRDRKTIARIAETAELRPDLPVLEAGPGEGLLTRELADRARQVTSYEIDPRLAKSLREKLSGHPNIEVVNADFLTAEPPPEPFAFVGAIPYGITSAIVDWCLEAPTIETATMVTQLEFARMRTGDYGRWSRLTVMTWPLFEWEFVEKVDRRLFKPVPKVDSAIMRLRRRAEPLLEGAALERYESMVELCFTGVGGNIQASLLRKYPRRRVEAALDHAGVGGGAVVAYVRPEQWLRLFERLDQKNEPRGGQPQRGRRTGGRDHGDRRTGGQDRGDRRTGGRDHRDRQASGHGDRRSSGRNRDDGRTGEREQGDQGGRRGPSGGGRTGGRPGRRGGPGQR

ErmE E160A = target: T6, ErmE E160A (Saccharopolyspora erythraea, UniProt P07287 1-381, E160A)
T6 sequence: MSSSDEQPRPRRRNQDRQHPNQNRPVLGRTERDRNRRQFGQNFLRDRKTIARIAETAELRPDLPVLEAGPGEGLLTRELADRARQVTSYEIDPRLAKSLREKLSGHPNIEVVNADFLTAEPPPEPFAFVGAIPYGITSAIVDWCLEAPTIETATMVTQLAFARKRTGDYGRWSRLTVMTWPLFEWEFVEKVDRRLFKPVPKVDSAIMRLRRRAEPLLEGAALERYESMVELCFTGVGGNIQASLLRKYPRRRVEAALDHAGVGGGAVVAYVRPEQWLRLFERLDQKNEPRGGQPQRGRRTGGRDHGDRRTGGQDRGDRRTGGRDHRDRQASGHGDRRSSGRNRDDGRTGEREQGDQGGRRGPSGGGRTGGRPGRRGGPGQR

## GGCCUGCGGCAAGACGGAAAGACCAUGGUCCCUAUCUGCCGCAGGAUC (structured_RNA) [V48 Erm substrate (23S rRNA helix 73 mimic, 48 nt)]
ErmE R163E
  Kd: 3700 nM
ErmE R165A
  Kd: 490 ± 50 nM
ErmE E160W
  binding signal: ~4 fold Kd increase vs wt
ErmE K164S
  binding result: binds
ErmE K164M
  binding result: binds
ErmE E160A
  binding result: binds
